Experimental data published in patent US20170174733A1 (Genentech, published 2017).

Legend:
[1] = target: T1, human VEGF (human, UniProt P15692 27-191); assay: cell-based or functional assay
[2] = target: T2, VEGF109 (UniProt P15692 214-315, biotinylated where loaded on streptavidin tips); assay: phage spot ELISA on VEGF with the phage-displayed clone 37, as told by the legend and paragraph 367; the sheet draws sequences only, no signals
T2 construct: range 8-109; also called VEGF8-109; biotinylated VEGF109
T2 sequence: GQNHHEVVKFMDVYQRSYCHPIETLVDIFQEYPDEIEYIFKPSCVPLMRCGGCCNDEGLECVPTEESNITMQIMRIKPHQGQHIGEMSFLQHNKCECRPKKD

[3] = target: T1, human VEGF; assay: cell-based or functional assay; remark: listed apart in the source
[4] = target: T3, LRP6 E1E2 with a C-terminal Avi-tag and His6-tag (human, UniProt O75581 20-630, biotinylated (Avi-tag) where loaded on streptavidin tips; unlabeled where in solution); assay: BLI (OctetRED384): Strep-tagged variant captured by StrepMAB-Immo on AMC tips, LRP6-E1E2 in solution
T3 construct: domain: E1E2; also called LRP6 receptor fragment E1E2; biotinylated LRP6-E1E2; not shown: C-terminal Avi-tag and His6-tag
T3 sequence: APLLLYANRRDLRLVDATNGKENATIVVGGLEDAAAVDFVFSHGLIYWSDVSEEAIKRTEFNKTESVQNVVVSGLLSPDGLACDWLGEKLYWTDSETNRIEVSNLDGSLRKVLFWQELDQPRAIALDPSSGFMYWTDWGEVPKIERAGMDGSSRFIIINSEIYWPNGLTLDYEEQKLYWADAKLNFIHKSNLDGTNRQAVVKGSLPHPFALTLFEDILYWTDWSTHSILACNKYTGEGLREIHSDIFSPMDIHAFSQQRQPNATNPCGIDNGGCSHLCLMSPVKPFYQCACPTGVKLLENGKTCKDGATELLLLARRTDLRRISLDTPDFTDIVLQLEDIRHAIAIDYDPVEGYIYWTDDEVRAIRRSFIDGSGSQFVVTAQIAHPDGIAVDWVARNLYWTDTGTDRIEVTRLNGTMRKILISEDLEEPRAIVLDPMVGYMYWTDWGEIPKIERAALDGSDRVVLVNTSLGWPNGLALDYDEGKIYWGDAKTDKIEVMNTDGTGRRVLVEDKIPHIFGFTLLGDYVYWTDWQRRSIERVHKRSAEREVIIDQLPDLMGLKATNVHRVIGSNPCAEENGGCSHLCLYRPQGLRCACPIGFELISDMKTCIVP

[5] = target: T2, VEGF109; assay: phage ELISA, 5 ug/ml VEGF coated on 384-well Maxisorp, OD 450 nm
[6] = target: LRP6 on HEK293S cells (human, UniProt O75581 20-1613); assay: cell-based or functional assay
[7] = target: T3, LRP6 E1E2 with a C-terminal Avi-tag and …; assay: BLI (OctetRED384), monomeric variant
[8] = target: T4, papain (UniProt P00784 134-345); assay: phage ELISA on coated papain, 2-fold phage dilutions, anti-M13-HRP detection, OD 450 nm
T4 construct: Coated on ELISA plates
T4 sequence: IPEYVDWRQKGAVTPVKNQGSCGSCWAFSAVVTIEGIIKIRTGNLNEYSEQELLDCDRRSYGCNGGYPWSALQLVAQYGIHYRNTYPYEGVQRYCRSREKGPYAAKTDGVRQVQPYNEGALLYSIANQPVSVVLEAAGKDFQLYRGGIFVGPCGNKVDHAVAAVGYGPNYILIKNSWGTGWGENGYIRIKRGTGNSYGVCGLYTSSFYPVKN

[9] = target: BSA (UniProt P02769 25-607); assay: phage ELISA on BSA as control, 2-fold phage dilutions, anti-M13-HRP detection, OD 450 nm
BSA, sequence (P02769 25-607 limits assumed): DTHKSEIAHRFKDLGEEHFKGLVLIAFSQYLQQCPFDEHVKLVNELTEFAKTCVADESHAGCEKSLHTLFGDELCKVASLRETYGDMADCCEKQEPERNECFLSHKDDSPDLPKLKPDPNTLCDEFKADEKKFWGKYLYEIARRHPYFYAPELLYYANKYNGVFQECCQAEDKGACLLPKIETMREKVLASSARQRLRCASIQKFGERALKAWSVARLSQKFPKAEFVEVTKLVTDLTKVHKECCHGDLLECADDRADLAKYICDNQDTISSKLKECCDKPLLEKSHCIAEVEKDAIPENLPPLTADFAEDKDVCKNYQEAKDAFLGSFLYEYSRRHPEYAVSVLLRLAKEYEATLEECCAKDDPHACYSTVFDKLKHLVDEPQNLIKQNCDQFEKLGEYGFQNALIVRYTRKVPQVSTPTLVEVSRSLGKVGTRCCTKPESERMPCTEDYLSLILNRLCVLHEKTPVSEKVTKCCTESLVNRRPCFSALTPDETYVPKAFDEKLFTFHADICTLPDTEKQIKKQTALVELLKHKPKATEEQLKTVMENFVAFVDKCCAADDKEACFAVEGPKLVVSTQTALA

[10] = target: anti-gD antibody (Genentech, Inc.); assay: phage ELISA on coated anti-gD antibody, 2-fold phage dilutions, anti-M13-HRP detection, OD 450 nm
[11] = target: T2, VEGF109; assay: BLI (Octet) on VEGF109
Method: Binding affinities of chagasin variants for the targets LRP6 and VEGF109 were measured using the OctetRED384 (ForteBio). All washes, dilutions and measurements were performed in PBS-based kinetics buffer (ForteBio) with the plate shaking at 1000 rpm. Streptavidin biosensors (SA tips, ForteBio) were equilibrated in kinetics buffer for 5 min and then loaded with either biotinylated LRP6-E1E2 or biotinylated VEGF109 (20 μg/ml) to a density of 2 nm signal difference, followed by a 3 min washing step. […] Dissociation of the chagasin variant-target complex was measured in wells containing kinetics buffer alone for up to 30 min. Sensorgrams with ligand-loaded SA tips going through wells containing only buffer in both association and dissociation measurement were used as reference for background subtraction. Kd, kₐ and kd were determined using the Octet evaluation software v7.0.1.3. using a 1:1 binding model with global fitting. Alternatively, AMC-biosensors (Fortebio) were loaded with StrepMAB-Immo (IBA GmbH) to saturation and subsequently used to capture Strep-tag II containing chagasin variants to saturation. After 5 min of washing in kinetics buffer, binding kinetics to unlabeled LRP6-E1E2 fragment was determined essentially as described above.

T1 sequence (P15692 other isoform, or with tags, fused parts or gaps limits assumed): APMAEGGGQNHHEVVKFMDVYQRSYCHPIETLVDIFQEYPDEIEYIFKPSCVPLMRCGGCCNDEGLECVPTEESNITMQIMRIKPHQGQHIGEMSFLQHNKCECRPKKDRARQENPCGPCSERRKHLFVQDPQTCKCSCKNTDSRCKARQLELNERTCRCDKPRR

B1: chagasin VEGF variant E4B-5 (designed binder)
chain: MSHKVTKAHNGATLTVAVGELVEIQLPSNYFYEGFAWYFEGGTKESPNESMFTVENKYFPNGPGLGVYGAGGTEHFHVTVKAAGTHAVNLTYMAPWQGPSRELERFTVYLKAN
Inhibitory Activity (IC50, nM) against hVEGF in cell-based assays [1]: 800 nM

B2: chagasin VEGF variant E4B-7 (designed binder)
chain: MSHKVTKAHNGATLTVAVGELVEIQLPSNYYYDGFAWYFEGGTKESPNESMFTVENKYFPNVNGSHAWGAGGTEHFHVTVKAAGTHAVNLTYMAPWSGPSRFLERFTVYLKAN
Inhibitory Activity (IC50, nM) against hVEGF in cell-based assays [1]: 550 nM

B3: dimeric chagasin VEGF variant 37 (designed binder)
chain: MSHKVTKAHNGATLTVAVGELVEIQLPSNYFCDGFAWYFEGGTKESPNESMFTVENKYFPNYPGSGVLGAGGTEHFHVTVKAAGTHAVNLTYMAPWFGPSRVLERFTVYLKAN
notes: also called clone 37
binding result [2]: binds

B4: chagasin VEGF variant L4X8-9 (designed binder)
chain: MSHKVTKAHNGATLTVAVGELVEIQLPSNYFYDGFAWYFEGGTKESPNESMFTVENKYFPSGSYMSYSGAGGTEHFHVTVKAAGTHAVNLTYMAPWLGPSRDLERFTVYLKAN
IC50, inhibition of VEGF-dependent signaling through the KDR receptor on cells [3]: 301 nM
fold improvement of IC50 over the parental chagasin variant 4 [3]: 2 fold
Inhibitory Activity (IC50, nM) against hVEGF in cell-based assays [1]: 300 nM

B5: chagasin VEGF variant E4B-10 (designed binder)
chain: MSHKVTKAHNGATLTVAVGELVEIQLPSNYFYDGFAWYFEGGTKESPNESMFTVENKYFPDDPGSGLWGAGGTEHFHVTVKAAGTHAVNLTYMAPWSGPSRYLERFTVYLKAN
Inhibitory Activity (IC50, nM) against hVEGF in cell-based assays [1]: 610 nM

B6: chagasin LRP6 variant H (designed binder)
chain: MSHKVTKAHNGATLTVAVGELVEIQLPSNPTTGFAWYFEGGTKESPNESMFTVENKYFPYNNIRGLPGFGAGGTEHFHVTVKAAGTHAVNLTYMRPWTGPSHDSERFTVYLKANSAWSHPQFEK
Kd [4]: 6 nM

B7: chagasin VEGF variant L4X6-3 (designed binder)
chain: MSHKVTKAHNGATLTVAVGELVEIQLPSNYFNDGFAWYFEGGTKESPNESMFTVENKYFPGSSYWGGAGGTEHFHVTVKAAGTHAVNLTYMAPWAGPSRVLERFTVYLKAN
Inhibitory Activity (IC50, nM) against hVEGF in cell-based assays [1]: 710 nM

B8: phage-displayed chagasin VEGF variant 1-90-H6 (designed binder)
chain: MADPNRFRGKDLGSLEMSHKVTKAHNGATLTVAVGELVEIQLPSNLQDSGFAWYFEGGTKESPNESMFTVENKYFPSGTTGKSNGAGGTEHFHVTVKAAGTHAVNLTYMFKSRGLMVPLERFTVYLKANGGSGGSGGS
notes: not shown: phage coat protein g3 (p3)
EC50 (read off the curve) [5]: ~0.006 OD 268 nM

B9: phage-displayed chagasin VEGF variant 5-44-D8 (designed binder)
chain: MADPNRFRGKDLGSLEMSHKVTKAHNGATLTVAVGELVEIQLPSNLRSMGFAWYFEGGTKESPNESMFTVENKYFPAGPSAVPLGAGGTEHFHVTVKAAGTHAVNLTYMAPWRGPANVIERFTVYLKANGGSGGSGGS
notes: as for B8
EC50 (read off the curve) [5]: ~0.003 OD 268 nM

B10: chagasin LRP6 variant S11 (designed binder)
chain: MSHKVTKAHNGATLTVAVGELVEIQLPSNVDGFAWYFEGGTKESPNESMFTVENKYFPSNSTKRGAGGTEHFHVTVKAAGTHAVNLTYMPRVKGAYLVMERFTVYLKAN
notes: also called clone S11
IC50, inhibition of Wnt1 signaling (luciferase reporter, HEK293S cells transfected by WNT1) [6]: 400 nM
Kd [7]: 74 nM

B11: phage-displayed chagasin VEGF variant 3-65-F5 (designed binder)
chain: MADPNRFRGKDLGSLEMSHKVTKAHNGATLTVAVGELVEIQLPSNYRDSGFAWYFEGGTKESPNESMFTVENKYFPVRAGQANEGAGGTEHFHVTVKAAGTHAVNLTYMSPVLGPRFWLERFTVYLKANGGSGGSGGS
notes: as for B8
EC50 (read off the curve) [5]: ~0.004 OD 268 nM

B12: phage-displayed chagasin VEGF variant 2-40-D4 (designed binder)
chain: MADPNRFRGKDLGSLEMSHKVTKAHNGATLTVAVGELVEIQLPSNLQNAGFAWYFEGGTKESPNESMFTVENKYFPLSLYASETGAGGTEHFHVTVKAAGTHAVNLTYMNPNWGPDYWIERFTVYLKANGGSGGSGGS
notes: as for B8
EC50 (read off the curve) [5]: ~0.003 OD 268 nM

B13: chagasin LRP6 variant H15 (designed binder)
chain: MSHKVTKAHNGATLTVAVGELVEIQLPSNPTTGFAWYFEGGTKESPNESMFTVENKYFPSNKIKGIPGFGAGGTEHFHVTVKAAGTHAVNLTYMRPSTGPSDDSERFTVYLKAN
notes: also called clone H15
IC50, inhibition of Wnt1 signaling (luciferase reporter, HEK293S cells transfected by WNT1) [6]: 26 nM
Kd [7]: 0.25 nM

B14: phage-displayed chagasin VEGF variant 4-66-F6 (designed binder)
chain: MADPNRFRGKDLGSLEMSHKVTKAHNGATLTVAVGELVEIQLPSNYFYDGFAWYFEGGTKESPNESMFTVENKYFPNDPGSRLSGAGGTEHFHVTVKAAGTHAVNLTYMAPWLGPSRVLERFTVYLKANGGSGGSGGS
notes: as for B8
EC50 (read off the curve) [5]: ~0.007 OD 268 nM

B15: phage-displayed gD-tagged wild-type chagasin fused to phage coat protein p3 (other)
chain: MADPNRFRGKDLGSLEMSHKVTKAHNGATLTVAVGELVEIQLPSNPTTGFAWYFEGGTKESPNESMFTVENKYFPPDSKLLGAGGTEHFHVTVKAAGTHAVNLTYMRPWTGPSHDSERFTVYLKANGGSGGSGGS
notes: also called chagasin wild-type (wt); p3-fusion display; not shown: phage coat protein g3 (p3)
EC50 (read off the curve) [8]: ~0.04 OD 268 nM
binding result [9]: no binding (tested: 0.5 OD 268 nm)
EC50 (read off the curve) [10]: ~0.01 OD 268 nM

B16: phage-displayed gD-tagged wild-type chagasin fused to phage coat protein p8 (other)
chain: MADPNRFRGKDLGSLEMSHKVTKAHNGATLTVAVGELVEIQLPSNPTTGFAWYFEGGTKESPNESMFTVENKYFPPDSKLLGAGGTEHFHVTVKAAGTHAVNLTYMRPWTGPSHDSERFTVYLKANGGSGGSGGS
notes: also called chagasin wild-type (wt); p8-fusion display; not shown: phage coat protein g8 (p8)
EC50 (read off the curve) [8]: ~0.04 OD 268 nM
binding result [9]: no binding (tested: 0.5 OD 268 nm)
EC50 (read off the curve) [10]: ~0.02 OD 268 nM

B17: chagasin LRP6 variant S (designed binder)
chain: MSHKVTKAHNGATLTVAVGELVEIQLPSNPADGFAWYFEGGTKESPNESMFTVENKYFPSNYTKHGAGGTEHFHVTVKAAGTHAVNLTYMPREKGSSLVMERFTVYLKANSAWSHPQFEK
Kd [4]: 70 nM

B18: chagasin VEGF binder Variant 66-L2-K (designed binder)
chain: MSHKVTKAHNGATLTVAVGELVEIQLPSNYYKDGFAWYFEGGTKESPNESMFTVENKYFPHYYNLGGRYTGAGGTEHFHVTVKAAGTHAVNLTYMGPWLGPSRVLERFTVYLKAN
Kd [11]: 61 nM

B19: chagasin VEGF binder Variant 66-L4-S (designed binder)
chain: MSHKVTKAHNGATLTVAVGELVEIQLPSNYYYDGFAWYFEGGTKESPNESMFTVENKYFPHYSNLGGRYTGGAGTEHFHVTVKAAGTHAVNLTYMGPWLGPSRVLERFTVYLKAN
Kd [11]: 50 nM

B20: chagasin VEGF binder Variant 66-L4-Q (designed binder)
chain: MSHKVTKAHNGATLTVAVGELVEIQLPSNYYYDGFAWYFEGGTKESPNESMFTVENKYFPHYQNLGGRYTGAGGTEHFHVTVKAAGTHAVNLTYMGPWLGPSRVLERFTVYLKAN
Kd [11]: 80 nM

B21: chagasin VEGF binder Variant 66-L4-T (designed binder)
chain: MSHKVTKAHNGATLTVAVGELVEIQLPSNYYYDGFAWYFEGGTKESPNESMFTVENKYFPHYTNLGGRYTGGAGTEHFHVTVKAAGTHAVNLTYMGPWLGPSRVLERFTVYLKAN
Kd [11]: 51 nM

B22: chagasin LRP6 variant P (designed binder)
chain: MSHKVTKAHNGATLTVAVGELVEIQLPSNPSCGFAWYFEGGTKESPNESMFTVENKYFPDSNEIWYCGAGGTEHFHVTVKAAGTHAVNLTYMSPYYGPTKVEERFTVYLKANSAWSHPQFEK
Kd [4]: 150 nM
